Experimental data from the DeepSol protein solubility set.

test: soluble on expression in E. coli; label from the status in PepcDB or PDB records

Row | Sequence | soluble on expression in E. coli
1 | MAHHHHHHMAGEPYLVYLLRCLAHQSGLTQLSPHFAVPTTEIDSDDGGAVAVVTAGHSANHPSRLFWERCVVVGVRVEPTTKNLLQTGWETQPCSHCVSQDGAAADAHDSPSRRSRLCVLPLLYGGTQCGECGHALSLVPTWTRALYLVLQRRDRSRAAAVAYGEEVHRHLWLGVTIDALLYTSATEQQQQLLVVHAAAGPAAAAPSATLPCAETTKGAFHIICQDERVNRLGLKWGDGTAFSAAANLHDVARRVAPQLQGQAHVKRLLLLVVLYIVYYGSHPAAAGSHRHPLHVLLVGPAKTGKSALLREVAQLIGLEAEVLDSTVVRTGGSGGAAGGSSFSAALPIRRSAVLMAGSGMTASTLVLDQLPSTAGGAAAMAPLLEAMERGHGCGAASGEGDAAAGGPDVHELPSTIIAAAGEESAAAVQLAPYFSLLAAVAPTNSLDDTAIISQDVVAASRARSSHSRATSRSMSRATQLSASSPHHSQRGPSISQSTSHRADPSSLSERLTHEDVCYLVRRAAEPVLLNSVVSHAACYDAFIDKLVDCAGLLEETQPSVCHALPPPSACRGQHRVGLPSAACDSLRAAPLAIDEHLRILCALSRARALLEHAEVLRDAGWTAQMRDEVWALYHGHLVAFADLMQRRSCSSGAMASRDPAEVLRTTSWSSSFFDACGGSTAAPAPAGYPSLSRFSGDAAALGRAWKGRMRAMSSREGLGLWHPQKTPSKKRCRLMFVEALRQRQCLSAQVESAVPPPEVEHVFGLLGGSSAFGDPLDVVISQMQEEGLLLRRPGGWRSL | not soluble
2 | MLPTRSLLPFFLAPALLASAASQAAMEALDNDSLSQVTGQAGISLRLDLRAGAARVAWVDDGGSLSLRNLVIDNGCVKAGDCPDGRGGNIPLGAAQLGLSLPIFGVEQPTLALDVTTGSGGGQQLAISLPDLATINDQLIASGLPAQRIRLRVASDLYIGDNSIGRIELRDITDLRGTIKVWGH | not soluble
3 | MKCPFCNPIKENILYEDDTIRILLDNYPANPGHLLIVPRRHVTKLEELSEGEKASLLRGIEIAIEALKKTLNPDGFNVGINIGKAAGQTVEHLHIHVIPRFNNDCKYPKGGIRKAVLDVKDENLEDEERWTKNRLPREKVEELRRALHGG | soluble
4 | MNSLVRRSAQQLSLWRTYCIKHNASEAASPGRNAGRPNYEEFIGRHQRQAQCSIVVQVSSEKSYEELYNYCSSFGSIMGAHHYCVRQDETLHYILLEYATSDEAAAAIGAGVTNGELSGVPVRSPFLWFRAAGGGRRSPKLVANTAPALLSLDGTRQVDQRHLLGLLRGAADIEEQVQQLYEHTRLNELGIRMRFLAALQVQQAIAGMFPAAQAQPFGSSVNGFGRMGCDLDLILRFDSDMGAKIPLEAAVPSRLVYHTKENLSNGRSQTQRHMECFGDMLHLFLPGVCHVRRILQARVPIIKYHHEHLDLEVDLSMSNLTGFYMSELLYMFGEMDPRVRPLTFTIRRWAQTCGLTNPSPGRWISNFSLTCLVMFFLQQLRQPILPTIGALAKAAEPGDSRVTEDGINCTFTRNVDRLGFRSRNQSSLSELLLQFFEFYSQFDFHNRAISLNEGKPLSKPDHSAMYIVNPLEQLLNVSKNVSLEECERLRIEVRNAAWVLESEVENASVPEGDGQELSCGLLNLFKHPEKAVIRPNMFFKPRMVEVSDLFEQKEAGATSSSTPPTPAITYKSASVRQQVQSIKAATRSELKQLRGSGSSVPTSSPNNRRRS | not soluble
5 | MGSDKIHHHHHHVNGLPLVELSGDAYTQGWQHGRALREAIAANLRIYMTRFERELRIPPDEVWRRALRYAAVIAEQNQDYAAGMRGIAEGAGVDLAAIAALNVRYELFYQFFREYERGTGKPDGCTAFALLPSETDNGHLLVGENWDWIQGVRGAILRTIAPDGLRTLAFTEAGIFGGKIGLNAAGLALLINGLSSTGDDWASLRRPFHVRCYEILQARSLTEAQAVITSEERAGSANFLLAQVPDRVVNIEAAPAALAISGCTNGCLVHANHFTDPAALGIVERQIERYPHSYWRQERLRSLLASRPQSLAQVQAALRDHEQFPYSVCFHIDPADPPDEYYETVASVIMDVTAGVLYATDGPPCEHAYVRYELEVAR | not soluble
6 | MDENALRFASYWRNSLADAESGKGCFERKDAQNFTHWHGIAAGRLDEAIVNKFFKGEKDDVETVNVILRPKVYFRLLQHGKDRSAGTPDIVTPIVTPALLSREGFLYPTPATSIPRDLLEPLPKGAFSIGEIGQYDKYKTTHTDPTHVMWTRP | not soluble
7 | MGSDKIHHHHHHMIGVAEVVLDVRDLRIYYRTLYGYVKAVDGVSFDIKRGEILGIAGESGCGKSTLGNGLILLKPPMKYMGGEAILDGKNIMALSPKELRKVRYEKISIIPQYAMDAMNPTKKIKQIIDDLLHEHGESFERKKDVIEERLEIVNLGKKVLNMYPIELSGGMKQRMVMVISTLMNPDVLIADEITSALDVSSQRSVIQMLYEMREKEIMGSLAFITHDLSVLYQIADKVMVLYAGRVAEISPMEDIIQEPLHPYTKMLLSSLPKIGVRYSQTKLKGIPGYPPSLLNIGPGCRFRDRCPYAFEKCEQDPPVFDVDGRKVSCWLFERGDAN | not soluble
8 | SNAMKQLSGLLGELRQKLCAGFPEQAGIQQLIFPAPGLVGRQLLEWLTAQTHFPQFYWRHRDNHEEAAVCGQTRSFADMKDADDFIQQNPDANGLRIWGLNAFEPVMVFGQLTDNGLVSGKNAQASFLFLPRLEILRRGKKTSLTLNLSSETSLQKDALQAITFIDQLMAARALPVLNARIQHSSHTPGYPQWRNLIQQALNDIEQQKLDKVVLARTTTLTLNKPLSCAAFMAASRQVNHRCYHFMLRFDDRQAFLGSSPERLYLRQQLHLETEALAGTVSNLDSDPQAAVLADWLMHDEKNQRENLLVVDDICQRLQGGVTAVDVMPPEIIRLRKVQHLRRRICAQLSRASDTDCLQRLQPTAAVAGLPREAARQFIAKHELFSRGWYAGSAGYLSLKRTEFSVALRSARVDGQQIHLYAGAGIVAGSDAEQEWQEIDNKSAGLQSLLEHEAQPVKA | soluble
9 | MGHHHHHHSHMATNAKPVYKRILLKLSGEALQGTEGFGIDASILDRMAQEIKELVELGIQVGVVIGGGNLFRGAGLAKAGMNRVVGDHMGMLATVMNGLAMRDALHRAYVNARLMSAIPLNGVCDSYSWAEAISLLRNNRVVILSAGTGNPFFTTDSAACLRGIEIEADVVLKATKVDGVFTADPAKDPTATMYEQLTYSEVLEKELKVMDLAAFTLARDHKLPIRVFNMNKPGALRRVVMGEKEGTLITE | soluble
10 | MSLSLLLSILCMTQAKDRIVERPPFLAQSSSSIEIDKIVMSDTVTTVYIKAFYRPKYWIKIATGSVLKDNNGNLYPVRKGIGITLDKEFWMPESGEAEFQLTFPPIPQNVTCLDFSEGDFEGAYKIWGIQLDKKTFSKFKLPKDVTVTKADHKTTLPEPVVKYAKAILKGRILDYQKGMPNKGSLYFQDVIRDEAQEGKIRIQDDGTFYHEMNVFMVTPCMIRFPFGAVSYLLAPGETTSVVINLRENARKQSHLRQAEKPYGKEIYYGGYLAGVQQELADHPMSFSFTEGNSYEEYQQQIKKLNGKTAEEYKAQILARLPEFRKQITQSKGSPAYKEIINTDLELSAALKIIETERNLKLVHIMTNGLEGEKANKYYAETKIDIPQGYYESLQDFTYILSPKACYNSRYPILFDIIRRIGIDDKILKSLSNHTAASYLIQNPKAQMIGVSMRDLNPLNDKQKAELSTMPAAYNDMALAMNNDLLKQIEINKKKTGFTVNETGEVSNEDLFPSIISKFRGHTLLVDFWATWCGPCRSANKQILPMKEELKDKDIIYLYITGETSPLGTWKNMIPDIHGEHFRVTDEQWSYLREKFSIRGVPTYFVIDKEGNITYKQTGFPGVDTMKEQLMKALEKEGHHHHHH | soluble
11 | MDGELRAQGLRKRYGPKEVVRGVDLALRRGEIVALFGPNGAGKTTTFYMVVGFIRPTGGRIYLKGQEITALPMYKRARLGLGYLPQEPSAFRRMTALENLLAVLEFQPLSKKERLEKAKALLEELSIYHLRDRMAYSLSGGERRRLEIARALATDPDFLLLDEPFTGVDPKNVREIQKVIAELRERRGVGVFITDHAVRETLAITDRVYLMYDGQVLFHGDPETFAKDQGVRRHYLGEDYEL | soluble
12 | MAATTKKPEIAAQHKPQTAAAAVASPATGAQPGHYVDPAVASAAGVNNVPAQHQAPGSPAQGYGAAADIGGLTTQPTAISAGTSSIYSTATHSGSAAAQGMAAAQGGSAQKIIPAVSSVYSAPIQPSQPQPVAAPVAVPVAAQVPPEQHSENRQPAAVPVPQPEQRAAAQPATNAGATVEGREGEGRSLTLAAFFAGAAKKRLPKMIESGTAGNTEVAALSGAADGSMGIALSGRSMMSEEFDDAHLDEEDDQPNGLMKLASLSGLTRVSPNGLFLQTDHVEVGCFKPELVRMIKDVERHYNSPAIVTSGYRPPKGIRQGSKHYTCDAADIQIKGVSKWELATYLRSLPDRGGVGTYCHTESVHMDTGEARDWNWRCRRTAARK | not soluble
13 | MNKEEQYLLFALSAPMEILNQSCKPAHDSPKMYTGIKEFDLSSSWGINNRDDLIQTIYQMTDDGHANDLAGLYLTWQRSSPEEWKALIAGGSERGLIYTQFVAQTAMCCGEGGIKAWDYVRMGFLSRAGVLNNWLTEEESLWLQSRVYARAHHYYHSWMHYFSAYSLGRLYWQSSQCEDNASLREALTLYKYDSAGSRMFEELAAGSDRFYATLPWQPLTVQPECPVTLKDVSDL | not soluble
14 | MTYCHQFLSNLSSLTRFRLHTGNVNGYTQLKVRRFETSAEELAACLDLQLSSNPIADDFKENSCLLLCDNDHIDNYERDEIKITMKVFLSAWDVQQIDQAVTSLKEQLKTKDIEVLILSFPELDLIDGESEEDENNRWFEKVKPLYTYMEKLVETSEIASIGVSDFSARQLKTIIDHFDVKPSINHVRLDGCCQVPPELQALANDNDVQLLVHNDPTPFPTNNIFKTFCEIDSGSQKAVCSPLFETTWLSRYSVWVRKRSIMTSKGYIVQFFRKHD | not soluble
15 | GMTQQTDLQSKTNIDPLAMNDSFLAAADALAVDPMFGIPANVREVIARRGNATRLVILGTKGFGAHLMNVRHERPCEVIAAVDDFRYHSGELYYGLPIISTDRFTELATHDRDLVALNTCRYDGPKRFFDQICRTHGIPHLNFEQAVRAFGLQGNVDYRVDDWGADIVRNIPAFQTLAQRLADDYSVQTLYAVLNFHLTCEPEYYHEVERPYSTLYFRSGLLRFSDSEKMVDCGASIGESLAGLIGVTKGKFERVWMIEPDRINLQTLQNVLRRYTDTNFASRITVHGCGAGENTIRVPFNHEGGHGGFVKPADADHEPADLIDVRPIDDIIDDAPTFIKMDIEGSELSALKGARRAISEHKPKLAISAYHRSTDLLDLTNYILSIRPDYQIGLRHHTPDRWDTCLYFY | soluble
16 | MGSDKIHHHHHHMHYDHVLDKRMLRRSFEQAAAGYDQSAVLQREICDRMLSRLEYIKYVPARILDAGSGTGYGTRKLIERYPAAEIMPMDIALTMHRCARMAISEQIPGWQRWLPFRRHWPRDYICADIEQLPLGEASIGMIWSNLAIQWCNDLRQTFAEAYRVLENGGLLMFSTFGPDTLKELRQAFKSADSFSHVNRFTDMHDIGDMLVNCGFSLPVMDMEYITLTYEDVRGVMQDLKAIGARNVTQGRRRGLTGKAAWQQVIERYEALRQDGRLPATYEVVYGHAWKPESRQVQLKPETRRKLGLEP | not soluble
17 | MSLQGGIRFSDGIAAVADNEVITRRRLAEAVAEAKANLPKDAQISESELSRQVLMQLVNQSLIVQAGKRRNIQASEAEIDAVVAKNPALKNLSPAQRRDFADNIIAEKVRQQAVMQNSRVSEAEIDAFLEQAQKQGITLPEGAPLRQYRAQHILIKADSENAAVGAESTIRKIYGEARSGTDFSSLARQYSQDASAGNGGDLGWFADGVMVPAFEEAVHALKPGQVGAPVRTQFGWHIIKLNEVRDAGTPQERIRNSVRQYIFQQKAEQATVNLLRDLHSGAYVDIREGHHHHHH | soluble
18 | MKPRNINNSLPLQPLVPDQENKNKKNEEKSVNPVKITMGSGLNYIEQESLGGKYLTHDLSIKIADISEEIIQQAILSAMSIYKFSITDDLMSMAVNELIKLTKIENNVDLNKFTTICTDVLSPRVTRHNKEKNKRHSTLLKNPLFNFH | not soluble
